“And” between values parts separate entries of the source, which are not always exact repeats. Identical values can stand only once.

This passage reports FACS M2-HK MFI and ELISA A450 results from patent US20110070235A1.

B1: 3248_P18 (antibody, V domains shown)
VH: QVQLQESGPGLVKPSETLSLTCTVSGGSISAYHWSWIRQPPGKGLEWIGHIFDSGSTYYNPSLKSRVTISLDASKNQLSLRLTSVTASDTAIYYCARPLGSRYYYGMDVWGQGTTVTVSS
VL: DIQMTQSPSSLSASVGDRVTITCRASQSISRYLNWYQQKPGKAPKLLIYGASTLQNGAPSRFSGSGSGTDFTLTISSLQPEDSATYLCQQSYSVPAFGGGTKVEVK
B2: TCN-032 (8I10) (antibody, V domains shown)
VH: QVQLQESGPGLVKPSETLSLTCTVSGSSISNYYWSWIRQSPGKGLEWIGFIYYGGNTKYNPSLKSRVTISQDTSKSQVSLTMSSVTAAESAVYFCARASCSGGYCILDYWGQGTLVTVS
VL: DIQMTQSPSSLSASVGDRVTITCRASQNIYKYLNWYQQRPGKAPKGLISAASGLQSGVPSRFSGSGSGTDFTLTITSLQPEDFATYYCQQSYSPPLTFGGGTRVEIK
B3: 3139_P23 (antibody, V domains shown)
VH: QVQLQESGPRLVKPSESLSLTCTVSGGSISNSFWGWIRQPPGEGLEWIGYVYNSGNTKYNPSLKSRVTISRDTSKSQLYMKLRSVTAADTAVYYCARHDDASHGYSISWGHGTLVTVSS
VL: DIQMTQSPSSLSASVGDRVTITCRASQTISTYLNWYQQKSGKAPKLLIYAASGLQSGVPSRFSGSGSGTDFTLTISSLQPEDFATYFCQQSYNTPLTFGQGTKVEIK
B4: 3241_G23 (antibody, V domains shown)
VH: QVQLQQSGPGLVKPSQTLSLTCTVSGGPVSGGGYSWNWIRQRPGQGLEWVGFMFHSGSPRYNPTLKSRITISVDTSKNLVSLKLSSVTAADTAVYFCARVGQMDKYYAMDVWGQGTTVTVSS
VL: DIQMTQSPSSLSSSVGDRVTITCRASQSIGAYVNWYQQKAGKAPQVLIFGASNLQSGVPSRFSGSGSGTDFTLTISSLQPEDFATYFCQQTYSTPITFGQGTRLEIK
B5: 3244_H04 (antibody, V domains shown)
VH: EVQLVESGGGLVQPGGSLRLSCTASGLSVSSTYMNWVRQAPGKGLEWVSVFYSETRTYYADSVKGRFTVSRHNSNNTLYLQMNSLRAEDTAVYYCARVQRLSYGMDVWGQGTTVTVSS
VL: DIQMTQSPSSLSASVGDRVTITCRASQSISTYLNWYQKRPGKAPKLLVYGASSLQSGVPSRFSGSGSGTDFTLTIASLQPEDSAVYYCQQTYSIPLFGQGTRLEIK
B6: 3245_O19 (antibody, V domains shown)
VH: EVQLVESGGGLVQPGGSLRLSCTASGLSVSSTYMNWVRQAPGKGLEWVSVFYSETRTYYADSVKGRFTVSRHNSNNTLYLQMNSLRVEDTAVYYCARVQRLSYGMDVWGQGTTVTVSS
VL: DIQMTQSPSSLSASVGDRVTITCRASQSISTYLNWYQKRPGKAPKLLVYGASTLQSGVPSRFSGSGSGTDFTLTIASLQPEDSATYYCQQTYSIPLFGQGTRLEIK
B7: 3136_G05 (antibody, V domains shown)
VH: QVQLQESGPGLVKPSETLSLTCSVSGGSISSDFWSWIRQPPGKGLEWIGYVYNRGSTKYSPSLKSRVTISADMSKNQFSLNMSSVTAADTAVYYCAKNGRSSTSWGIDVWGKGTTVTVSS
VL: DIQMTQSPSSLSASVGDRLTITCRASQSISTYLHWYQQKPGKAPKLLIYAASSLQSGVPSRFSGSRSGTDFTLTISSLQPDDFATYYCQQSYSPPLTFGPGTKVDMK
B8: 3259_J21 (antibody, V domains shown)
VH: QVQLQESGPRVVRPSETLSLTCTVSGGSISSYNWIWIRQPPGKGLEWIGHIYDYGRTFYNSSLQSRPTISVDASKNQLSLRLTSVTASDTAVYYCARPLGILHYYAMDLWGQGTTVTVSS
VL: DIQMTQSPLSVSVSVGDRVTIACRASQSIDKFLNWYQQKPGKAPKLLIYGASNLHSGAPSRFSASGSGTDFTLTITNIQTEDFATYLCQQSFSVPAFGGGTKVEIK
B9: 3252_C13 (antibody, V domains shown)
VH: QVQLQESGPGLVKPSETLSLTCTVSGASISSDYWSWIRLPPGKGLEWIGYIYNRGSTKYTPSLKSRVTISLDTAENQFSLRLRSVTAADTAIYYCARHVGGHTYGIDYWGQGTLVTVSS
VL: DIQMTQSPSSLSASVGDRVTITCRASQSISNYLNWYQHKPGEAPKLLNYAASSLQSGVPSRFSASGSGTDFTLTISSLQPEDFATYYCQQSYNTPITFGQGTRLEIK
B10: 3362_B11 (antibody, V domains shown)
VH: QVQLQASGPGLVKPSETLSLTCTVSGDSITSGAYYWTWIRQHPGKGLEWIGYIYYSGNTYYNPSLKSRVTISLDTSKNQFSLKVNSVTAADTAVYYCARAASTSVLGYGMDVWGQGTTVTVSS
VL: DIQMTQSPSSLSASVGDRVTITCRASQSISRYLNWYQQEPGKAPKLLVYAASSLQSGVPSRFSGSGSGTDFTLTISSLQPEDFATYYCQQSYSTPLTFGQGTRLEIK
B11: 3420_I23 (antibody, V domains shown)
VH: QVQLQESGPGLVKPSETLSVTCKVSGDSISSYSWSWIRQPPGKGLEWVGYLYYSGSTKYNPSLKSRTTISVDTSTNQLSLKLSFVTAADTAVYFCARTGSESTTGYGMDVWGQGTTVTVSS
VL: DIQMTQSPSSLSASVGDRVTITCRASQSISTYLNWYQQKPGKAPKLLIYAASSLHSGVPSRFSGSGSGTDFALTISSLQPEDFATYYCQQSYSPPITFGQGTRLEIK
B12: 3255_J06 (antibody, V domains shown)
VH: QVQLQESGPGLVKPSETLSLTCTVSGASISSDYWSWIRLPPGKGLEWIGYIYNRGSTKYTPSLKSRVTISLDTAENQFSLRLRSVTAADTAVYYCARHVGGHTYGIDYWGQGTLVTVSS
VL: DIQMTQSPSSLSASVGDRVTITCRASQSISNYLNWYQHKPGEAPKLLNYAASSLQSGVPSRFSASGSGTDFTLSISGLQPEDFATYYCQQSYNTPITFGPGTRLEIK
B13: 3260_D19 (antibody, V domains shown)
VH: DMQLVESGGGLVPPGGSLRLSCAASGFSVSDNYINWVRQAPGKGLDWVSVFYSADRTSYADSVKGRFTVSSHDSKNTVYLQMNSLRAEDTAVYYCARVQKSYYGMDVWGQGTTVTVSS
VL: GIQMTQSPSSLSASVGDRVTITCRASQSISRYLNWYLQKPGKAPKLLISGASSLQSGVPSRFSGTGSGTEFTLTISSLQPEDFATYYCQQTFSIPLFGQGTKVEIK
B14: 3242_P05 (antibody, V domains shown)
VH: DMQLVESGGGLVPPGGSLRLSCAASGFSVSDNYINWVRQAPGKGLDWVSVFYSADRTSYADSVKGRFTVSSHDSKNTVYLQMNSLRAEDTAVYYCARVQKSYYGMDVWGQGTTVTVSS
VL: GIQMTQSPSSLSASVGDRVTITCRASQSISRYLNWYLQKPGKAPKLLISGASSLQSGVPSRFSGTGSGTEFTLTISSLQPEDFATYYCQQTFSIPLFGQGTKVEIK
B15: 3253_P10 (antibody, V domains shown)
VH: QVQLQESGPGLLKPSDTLALTCTVSGGSITSDYWSWIRQPPGRGLDWIGFFYNGGSTKYNPSLKSRVTISADTSKNQLSLKLTSVTAADTGVYYCARHDAKFSGSYYVASWGQGTRVTVSS
VL: DIQMTQSPSSLSASVGDRVTISCRASQSISTYLNWYQQQPGKAPKVLISGATDLQSGVPSRFSGSGSGTDFTLTISSLQPEDFATYYCQQSYNTPLIFGQGTKLEIK
B16: 3244_I10 (antibody, V domains shown)
VH: QVQLQESGPGLLKPSDTLALTCTVSGGSITSDYWSWIRQPPGRGLDWIGFFYNGGSTKYNPSLKSRVTISADTSKNQLSLKLTSVTAADTGVYYCARHDAKFSGSYYVASWGQGTRVTVSS
VL: DIQMTQSPSSLSASVGDRVTISCRASQSISTYLNWYQQQPGKAPKVLIFGATNLQSGVPSRFSGSGSGTDFTLTISSLQPEDFATYYCQQSYNTPLIFGQGTKLEIK
B17: 3243_J07 (antibody, V domains shown)
VH: QVQLQESGPGLLKPSDTLALTCTVSGGSITSDYWSWIRQPPGRGLDWIGFFYNGGSTKYNPSLKSRVTISADTSKNQLSLKLTSVTAADTGVYYCARHDVKFSGSYYVASWGQGTRVTVSS
VL: DIQMTQSPSSLSASVGDRVTISCRASQSISTYLNWYQQQPGKAPKVLISGATNLQSGVPSRFSGSGSGTDFTLTISSLQPEDFATYYCQQSYNTPLIFGQGTKLEIK

For the first assay, the target named is M2 protein of A/Hong Kong/483/1997, expressed on cells (Influenza A virus A/Hong Kong/483/1997 (H5N1)).
Test: not given
Consider B1, for which the FACS M2-HK MFI was determined as 967 MFI.
On to B2, for which the FACS M2-HK MFI was 754 MFI and 1080 MFI.
The molecule B3 came in with an FACS M2-HK MFI of 110 MFI.
B4 returned an FACS M2-HK MFI of 1700 MFI.
B5 came in with an FACS M2-HK MFI of 963 MFI.
B6 had an FACS M2-HK MFI of 919 MFI.
In the case of B7, the FACS M2-HK MFI came out at 109 MFI.
Same read-out and setting: the result for B8 reads 1670 MFI.
The molecule B9 had an FACS M2-HK MFI of 449 MFI.
Regarding B10, the FACS M2-HK MFI is 218 MFI.
Molecule B11 gave an FACS M2-HK MFI of 112 MFI.
Still for that read-out and setting: in the case of B12 it was 442 MFI.
For B13, the FACS M2-HK MFI stood at 846 MFI.
Molecule B14 gave an FACS M2-HK MFI of 596 MFI.
As for B15, the FACS M2-HK MFI was 43 MFI.
Same read-out and setting: the result for B16 reads 434 MFI; that for B17, 131 MFI.

For the next assay, the target named is M2e. In words: peptide ELISA, mAb 5 ug/mL.
TCN-032 (8I10) (antibody): the ELISA A450 came to 0.13.
